From patent US20250262210A1 (TRUSTEES OF COLUMBIA UNIVERSITY IN THE CITY OF NEW YORK, published 2025) come the findings set out here.

Numbering of substitutions follows the chain as printed.

One test addresses T1, LZTR1-FLAG (human, UniProt Q8N653 1-840).
T1 construct: Expressed in HEK 293T, HeLa or U87 cells; used as cell lysate; also called LZTR1 wild type-FLAG; LZTR1 WT; not shown: FLAG tag at the C-terminus
T1 sequence (looked up): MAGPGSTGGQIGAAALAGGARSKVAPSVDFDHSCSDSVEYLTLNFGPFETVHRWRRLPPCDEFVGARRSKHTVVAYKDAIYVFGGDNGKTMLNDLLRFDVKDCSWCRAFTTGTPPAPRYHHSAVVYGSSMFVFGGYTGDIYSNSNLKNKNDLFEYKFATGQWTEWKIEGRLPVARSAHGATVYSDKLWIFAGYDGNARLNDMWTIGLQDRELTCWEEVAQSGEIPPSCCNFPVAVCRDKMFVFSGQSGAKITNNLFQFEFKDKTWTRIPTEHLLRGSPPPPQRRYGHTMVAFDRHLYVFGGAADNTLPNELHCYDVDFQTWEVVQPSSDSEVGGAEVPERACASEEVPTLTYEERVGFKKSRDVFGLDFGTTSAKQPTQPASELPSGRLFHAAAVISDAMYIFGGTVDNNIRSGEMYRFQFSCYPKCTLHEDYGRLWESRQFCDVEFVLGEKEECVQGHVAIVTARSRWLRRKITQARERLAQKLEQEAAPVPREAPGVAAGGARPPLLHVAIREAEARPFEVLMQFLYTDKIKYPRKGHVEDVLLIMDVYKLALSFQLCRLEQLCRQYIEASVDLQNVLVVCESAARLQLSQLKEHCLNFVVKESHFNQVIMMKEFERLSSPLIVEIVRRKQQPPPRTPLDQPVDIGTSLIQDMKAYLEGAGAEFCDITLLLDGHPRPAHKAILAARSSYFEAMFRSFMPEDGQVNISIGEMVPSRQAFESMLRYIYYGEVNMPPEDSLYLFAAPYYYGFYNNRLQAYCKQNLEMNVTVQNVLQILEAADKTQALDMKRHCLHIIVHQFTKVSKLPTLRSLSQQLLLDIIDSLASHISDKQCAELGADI
Put plainly: IP/MS, LZTR1 wild type-FLAG, U87. The method, boiled down: (§1)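 Read-out: spectral counts from LC-MS/MS (Orbitrap Fusion) after MaxQuant identification. Variable modifications were Met oxidation, protein N-terminal acetylation and N/Q deamidation.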

A further test addresses T2, LZTR1 R810W-FLAG (human, UniProt Q8N653 1-840).
T2 construct: Stably expressed in U87 cells by lentivirus; also called LZTR1-FLAG-R810W; LZTR1 RW; not shown: FLAG tag
T2 sequence (looked up): T1 sequence (looked up) with R810W
Put plainly: IP/MS, LZTR1 R810W-FLAG, U87. The method, boiled down:
as §1

B1: PPP6C (other, human, UniProt O00743 1-305, looked up)
chain: MAPLDLDKYVEIARLCKYLPENDLKRLCDYVCDLLLEESNVQPVSTPVTVCGDIHGQFYDLCELFRTGGQVPDTNYIFMGDFVDRGYYSLETFTYLLALKAKWPDRITLLRGNHESRQITQVYGFYDECQTKYGNANAWRYCTKVFDMLTVAALIDEQILCVHGGLSPDIKTLDQIRTIERNQEIPHKGAFCDLVWSDPEDVDTWAISPRGAGWLFGAKVTNEFVHINNLKLICRAHQLVHEGYKFMFDEKLVTVWSAPNYCYRCGNIASIMVFKDVNTREPKLFRAVPDSERVIPPRTTTPYFL
In the case of B1, the binding result with LZTR1-FLAG and with LZTR1 R810W-FLAG was “binds” in each case.

B2: RANBP9 (other, human, UniProt Q96S59 1-729, looked up)
chain: MSGQPPPPPPQQQQQQQQLSPPPPAALAPVSGVVLPAPPAVSAGSSPAGSPGGGAGGEGLGAAAAALLLHPPPPPPPATAAPPPPPPPPPPPASAAAPASGPPAPPGLAAGPGPAGGAPTPALVAGSSAAAPFPHGDSALNEQEKELQRRLKRLYPAVDEQETPLPRSWSPKDKFSYIGLSQNNLRVHYKGHGKTPKDAASVRATHPIPAACGIYYFEVKIVSKGRDGYMGIGLSAQGVNMNRLPGWDKHSYGYHGDDGHSFCSSGTGQPYGPTFTTGDVIGCCVNLINNTCFYTKNGHSLGIAFTDLPPNLYPTVGLQTPGEVVDANFGQHPFVFDIEDYMREWRTKIQAQIDRFPIGDREGEWQTMIQKMVSSYLVHHGYCATAEAFARSTDQTVLEELASIKNRQRIQKLVLAGRMGEAIETTQQLYPSLLERNPNLLFTLKVRQFIEMVNGTDSEVRCLGGRSPKSQDSYPVSPRPFSSPSMSPSHGMNIHNLASGKGSTAHFSGFESCSNGVISNKAHQSYCHSNKHQSSNLNVPELNSINMSRSQQVNNFTSNDVDMETDHYSNGVGETSSNGFLNGSSKHDHEMEDCDTEMEVDSSQLRRQLCGGSQAAIERMIHFGRELQAMSEQLRRDCGKNTANKKMLKDAFSLLAYSDPWNSPVGNQLDPIQREPVCSALNSAILETHNLPKQPPLALAMGQATQCLGLMARSGIGSCAFATVEDYLH
As for B2, the binding result with LZTR1-FLAG and with LZTR1 R810W-FLAG was “binds” in each case.

B3: RABGEF1 (other, human, UniProt Q9UJ41 1-491, looked up)
chain: MSLKSERRGIHVDQSDLLCKKGCGYYGNPAWQGFCSKCWREEYHKARQKQIQEDWELAERLQREEEEAFASSQSSQGAQSLTFSKFEEKKTNEKTRKVTTVKKFFSASSRVGSKKEIQEAKAPSPSINRQTSIETDRVSKEFIEFLKTFHKTGQEIYKQTKLFLEGMHYKRDLSIEEQSECAQDFYHNVAERMQTRGKVPPERVEKIMDQIEKYIMTRLYKYVFCPETTDDEKKDLAIQKRIRALRWVTPQMLCVPVNEDIPEVSDMVVKAITDIIEMDSKRVPRDKLACITKCSKHIFNAIKITKNEPASADDFLPTLIYIVLKGNPPRLQSNIQYITRFCNPSRLMTGEDGYYFTNLCCAVAFIEKLDAQSLNLSQEDFDRYMSGQTSPRKQEAESWSPDACLGVKQMYKNLDLLSQLNERQERIMNEAKKLEKDLIDWTDGIAREVQDIVEKYPLEIKPPNQPLAAIDSENVENDKLPPPLQPQVYAG
Turning to B3, the binding result with LZTR1-FLAG and in the test with LZTR1 R810W-FLAG was “binds” throughout.

B4: PTOV1 (other, human, UniProt Q86YD1 1-416, looked up)
chain: MVRPRRAPYRSGAGGPLGGRGRPPRPLVVRAVRSRSWPASPRGPQPPRIRARSAPPMEGARVFGALGPIGPSSPGLTLGGLAVSEHRLSNKLLAWSGVLEWQEKRRPYSDSTAKLKRTLPCQAYVNQGENLETDQWPQKLIMQLIPQQLLTTLGPLFRNSQLAQFHFTNRDCDSLKGLCRIMGNGFAGCMLFPHISPCEVRVLMLLYSSKKKIFMGLIPYDQSGFVSAIRQVITTRKQAVGPGGVNSGPVQIVNNKFLAWSGVMEWQEPRPEPNSRSKRWLPSHVYVNQGEILRTEQWPRKLYMQLIPQQLLTTLVPLFRNSRLVQFHFTKDLETLKSLCRIMDNGFAGCVHFSYKASCEIRVLMLLYSSEKKIFIGLIPHDQGNFVNGIRRVIANQQQVLQRNLEQEQQQRGMGG
For B4, the binding result in the test with LZTR1-FLAG and with LZTR1 R810W-FLAG was “binds” throughout.

B5: RAP1GDS1 (other, human, UniProt P52306 1-607, looked up)
chain: MDNLSDTLKKLKITAVDKTEDSLEGCLDCLLQALAQNNTETSEKIQASGILQLFASLLTPQSSCKAKVANIIAEVAKNEFMRIPCVDAGLISPLVQLLNSKDQEVLLQTGRALGNICYDSHEGRSAVDQAGGAQIVIDHLRSLCSITDPANEKLLTVFCGMLMNYSNENDSLQAQLINMGVIPTLVKLLGIHCQNAALTEMCLVAFGNLAELESSKEQFASTNIAEELVKLFKKQIEHDKREMIFEVLAPLAENDAIKLQLVEAGLVECLLEIVQQKVDSDKEDDITELKTGSDLMVLLLLGDESMQKLFEGGKGSVFQRVLSWIPSNNHQLQLAGALAIANFARNDANCIHMVDNGIVEKLMDLLDRHVEDGNVTVQHAALSALRNLAIPVINKAKMLSAGVTEAVLKFLKSEMPPVQFKLLGTLRMLIDAQAEAAEQLGKNVKLVERLVEWCEAKDHAGVMGESNRLLSALIRHSKSKDVIKTIVQSGGIKHLVTMATSEHVIMQNEALVALALIAALELGTAEKDLESAKLVQILHRLLADERSAPEIKYNSMVLICALMGSECLHKEVQDLAFLDVVSKLRSHENKSVAQQASLTEQRLTVES
B5: the binding result with LZTR1-FLAG and with LZTR1 R810W-FLAG was “binds” each time.

B6: RASA3 (other, human, UniProt Q14644 2-834, looked up)
chain: AVEDEGLRVFQSVKIKIGEAKNLPSYPGPSKMRDCYCTVNLDQEEVFRTKIVEKSLCPFYGEDFYCEIPRSFRHLSFYIFDRDVFRRDSIIGKVAIQKEDLQKYHNRDTWFQLQHVDADSEVQGKVHLELRLSEVITDTGVVCHKLATRIVECQGLPIVNGQCDPYATVTLAGPFRSEAKKTKVKRKTNNPQFDEVFYFEVTRPCSYSKKSHFDFEEEDVDKLEIRVDLWNASNLKFGDEFLGELRIPLKVLRQSSSYEAWYFLQPRDNGSKSLKPDDLGSLRLNVVYTEDHVFSSDYYSPLRDLLLKSADVEPVSASAAHILGEVCREKQEAAVPLVRLFLHYGRVVPFISAIASAEVKRTQDPNTIFRGNSLASKCIDETMKLAGMHYLHVTLKPAIEEICQSHKPCEIDPVKLKDGENLENNMENLRQYVDRVFHAITESGVSCPTVMCDIFFSLREAAAKRFQDDPDVRYTAVSSFIFLRFFAPAILSPNLFQLTPHHTDPQTSRTLTLISKTVQTLGSLSKSKSASFKESYMATFYEFFNEQKYADAVKNFLDLISSSGRRDPKSVEQPIVLKEGFMIKRAQGRKRFGMKNFKKRWFRLTNHEFTYHKSKGDQPLYSIPIENILAVEKLEEESFKMKNMFQVIQPERALYIQANNCVEAKDWIDILTKVSQCNQKRLTVYHPSAYLSGHWLCCRAPSDSAPGCSPCTGGLPANIQLDIDGDRETERIYSLFNLYMSKLEKMQEACGSKSVYDGPEQEEYSTFVIDDPQETYKTLKQVIAGVGALEQEHAQYKRDKFKKTKYGSQEHPIGDKSFQNYIRQQSETSTHSI
As to B6, the binding result in the test with LZTR1-FLAG and with LZTR1 R810W-FLAG was “binds” throughout.

B7: RETSAT (other, human, UniProt Q6NUM9 19-610, looked up)
chain: KVYLGLFSGSSPNPFSEDVKRPPAPLVTDKEARKKVLKQAFSANQVPEKLDVVVIGSGFGGLAAAAILAKAGKRVLVLEQHTKAGGCCHTFGKNGLEFDTGIHYIGRMEEGSIGRFILDQITEGQLDWAPLSSPFDIMVLEGPNGRKEYPMYSGEKAYIQGLKEKFPQEEAIIDKYIKLVKVVSSGAPHAILLKFLPLPVVQLLDRCGLLTRFSPFLQASTQSLAEVLQQLGASSELQAVLSYIFPTYGVTPNHSAFSMHALLVNHYMKGGFYPRGGSSEIAFHTIPVIQRAGGAVLTKATVQSVLLDSAGKACGVSVKKGHELVNIYCPIVVSNAGLFNTYEHLLPGNARCLPGVKQQLGTVRPGLGMTSVFICLRGTKEDLHLPSTNYYVYYDTDMDQAMERYVSMPREEAAEHIPLLFFAFPSAKDPTWEDRFPGRSTMIMLIPTAYEWFEEWQAELKGKRGSDYETFKNSFVEASMSVVLKLFPQLEGKVESVTAGSPLTNQFYLAAPRGACYGADHDLGRLHPCVMASLRAQSPIPNLYLTGQDIFTCGLVGALQGALLCSSAILKRNLYSDLKNLDSRIRAQKKKN
B7: the binding result in the test with LZTR1-FLAG and with LZTR1 R810W-FLAG was “binds” throughout.
